As a reminder, the Kd is the concentration at which binding is half-saturated.

Results on two molecules are retold here after patent US20080063651A1 (published 2008).

For this test, the target named is T1, Recombinant human TNF-α (human, UniProt P01375 77-233).
T1 construct: also called tumor necrosis factor-α; biotinylated TNF-α
As to the kind of experiment: 35S-labelled free protein with biotinylated TNF-α, biotin capture membrane, phosphorimaging.

T1 sequence (P01375 77-233 limits assumed): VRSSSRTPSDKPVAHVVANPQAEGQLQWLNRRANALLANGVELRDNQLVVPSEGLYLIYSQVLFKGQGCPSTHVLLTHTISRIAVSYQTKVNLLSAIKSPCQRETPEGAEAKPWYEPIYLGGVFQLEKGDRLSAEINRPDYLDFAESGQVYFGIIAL

B1: clone T09.12 (designed binder)
chain: VSDVPRDLEVVAATPTSLLISWRPTSNPPRYYRITYGETGGNSPVQEFTVPPWASTATISGLKPGVDYTITVYAVTAQTGHHLHDKPISINYRT
With B1, the Kd came to 0.004 µM.

B2: clone M12.04 (designed binder)
chain: VSDVPGDLEVVAATPTSLLIGWSMTPNWPRYYRIAYGETGGDSPVQEFTVPPWASIAIIGGLKPGVDYTITVYAVTHRDTPISINYRT
In the case of B2, the Kd worked out at 20 µM.
